# Reference: paper PMC2897767, “Two Distinct Mechanisms for Actin Capping Protein Regulation—Steric and Allosteric Inhibition” (PLoS Biology, 2010)
# Experiments:
# Conditions in all cases: both partners purified
# [1] = biological target: T1, actin capping protein (CP), chicken α1/β1, CP_full (chicken, UniProt P13127 1-286; P14315 1-277); test: SPR; as a1, but koff >0.1 s^-1: amount of bound CP at the steady state plotted against the concentration of CP (Michaelis-Menten plots under saturated binding conditions)
# CP (β) D44N = CP (β) D44N (chicken, UniProt P13127 1-286; P14315 1-277, D44N); test: as above
# CP (β) D63N = CP (β) D63N (chicken, UniProt P13127 1-286; P14315 1-277, D63N); test: as above
# CP (β) D67N = CP (β) D67N (chicken, UniProt P13127 1-286; P14315 1-277, D67N); test: as above
# CP (β) Y64F = CP (β) Y64F (chicken, UniProt P13127 1-286; P14315 1-277, Y64F); test: SPR; GST-fusion protein (GST-V-1, GST-CA or GST-CD) immobilised on a CM5 chip via anti-GST antibodies (up to 200 RU), CP perfused at 20 µl/min; 20°C; 50 mM KCl, 1 mM MgCl2, 0.005% Tween-20, 10 mM imidazole pH 7.0; 1:1 fit, KD from the kinetic rate constants (steady state for several fast-dissociating mutants)
# [2] = biological target: T1, actin capping protein (CP), chicken …; test: as above
# [3] = biological target: T1, actin capping protein (CP), chicken …; test: SPR; competition: GST-CA92 immobilised, perfused with 50 nM wild type CP pre-mixed with various concentrations of CARMIL peptides (CA21 up to 500 nM)
# [4] = biological target: CPβΔC (chicken α1 full/β1 1–244; a deletion mutant CP lacking the β-tentacle) (chicken, UniProt P13127 1-286; P14315 1-244); test: crystal structure; complexes formed with 1.2–2.0-fold molar excess of V-1 or peptide and purified by gel filtration; hanging-drop vapor diffusion at 20°C; molecular replacement
Kd [1] [nM],koff [1] [s⁻¹],Kd [2] [nM],koff [2] [s⁻¹],kon [2] [M⁻¹ s⁻¹],binding result [3],binding result [4],Binder,further results
4000,> 0.1,,,,,,"GST-CA55 (domain or fragment, CARMIL, mouse, residues 962–1016) FPSVRQEKRSSGLISELPSEEGRRLEHFTKLRPKRNKKQQPTQAAVCTISILPQD",
,,3.3,0.0052,1.6e+06,,,"GST-CA92 (domain or fragment, CARMIL, mouse, residues 962–1053) FPSVRQEKRSSGLISELPSEEGRRLEHFTKLRPKRNKKQQPTQAAVCTISILPQDGEQNGLMGRVDEGVDEFFTKKVTKMDCKRSSSRSSDA",Kd (CP (β) D44N): 7400 nM; koff (CP (β) D44N): > 0.1 s⁻¹; Kd (CP (β) D63N): 1400 nM; koff (CP (β) D63N): > 0.1 s⁻¹; Kd (CP (β) D67N): 4900 nM; koff (CP (β) D67N): > 0.1 s⁻¹; Kd (CP (β) Y64F): 10 nM; koff (CP (β) Y64F): 0.0046 s⁻¹; kon (CP (β) Y64F): 460000 M⁻¹ s⁻¹
,,18,0.029,1.6e+06,,,"FDSLTVRTSKETDVVNFDDIASSENLLHLTANRPKMPGRRLPGRFNG (domain or fragment, CD2AP, human, residues 461–507; cloned into pGEX-6P-1) [GST-CD47]",
260,> 0.1,,,,,,"FDSLTVRTSKETDVVNFDDIASSENLLHLTANRPKMPGRRLPG (domain or fragment, CD2AP, human, residues 461–503; cloned into pGEX-6P-1) [GST-CD43]",
,,62,0.033,540000,,,"FDSLTVRTSKETDVVNFDDIASSENLLHLTANRPKMPGRRLPGR (domain or fragment, CD2AP, human, residues 461–504; cloned into pGEX-6P-1) [GST-CD44]",
3300,> 0.1,,,,,,"GST-CA63 (domain or fragment, CARMIL, mouse, residues 962–1024) FPSVRQEKRSSGLISELPSEEGRRLEHFTKLRPKRNKKQQPTQAAVCTISILPQDGEQNGLMG",
,,80,0.019,230000,,,"GST-CA76 (domain or fragment, CARMIL, mouse, residues 962–1037) FPSVRQEKRSSGLISELPSEEGRRLEHFTKLRPKRNKKQQPTQAAVCTISILPQDGEQNGLMGRVDEGVDEFFTKK",
,,,,,binds,binds,"NLLHLTANRPKMPGRRLPGRFNG (CD2AP, human, residues 485–507; also called CARMIL peptide; source: synthetic peptide, Invitrogen) [CD23, human CD2AP (485–507)]",
,,,,,binds,binds,"SYLAHPTRDRAKIQHSRRPPTRG (CKIP-1, human, residues printed as 148–70, read as 148–170 (23 residues); also called CARMIL peptide; source: synthetic peptide, Invitrogen) [CK23, human CKIP-1 (148–70)]",
,,,,,binds,binds,"RLEHFTKLRPKRNKKQQPTQA (CARMIL, mouse, residues 985–1005; also called CARMIL peptide; source: synthetic peptide, Invitrogen) [CA21, mouse CARMIL (residues 985–1005)]",
